The experiment concerns the target Human GPA33 (Novoprotein), recombinant protein immobilized on CM5 chips (human) (UniProt Q99795). Description: SPR (Biacore T100), GPA33 recombinant protein immobilized on CM5 chip, antibody flowed over. (In SPR one partner is held on a chip, and binding of the other changes the refractive index at the surface.)

Sequence of Human GPA33 (Novoprotein), recombinant protein immobilized on CM5 chips (human) (Q99795 22-235 limits assumed): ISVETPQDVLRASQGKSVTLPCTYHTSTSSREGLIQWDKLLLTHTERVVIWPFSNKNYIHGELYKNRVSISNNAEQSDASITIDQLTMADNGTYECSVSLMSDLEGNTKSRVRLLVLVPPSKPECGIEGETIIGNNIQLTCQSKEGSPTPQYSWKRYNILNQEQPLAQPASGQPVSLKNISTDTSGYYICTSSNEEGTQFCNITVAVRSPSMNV

Take “hA33-mC825 BsAb (original humanized hA33 in hA33-mC825 bispecific format, Cheal et al. 2016) (bispecific antibody)”: the Kd (in general, the concentration at which binding is half-saturated) is 1.59 nM; the koff – broadly, the rate constant with which the complex falls apart – came out at 0.00294 s⁻¹; the kon (in general, the rate constant with which the complex forms) is 1.85e+06 M⁻¹ s⁻¹.
